assay: yeast display, Sf9 membrane polyspecificity reagent, FACS + sequencing; frameworks hold sequencing errors
Outline: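 Galactose induction of a Saccharomyces cerevisiae BJ5465 synthetic nanobody display library ran 36–48 hours. The cells were then stained for 1 hour at 4 °C with 10% biotinylated, detergent-solubilized Sf9 membrane reagent, pulled down on streptavidin microbeads and FACS-sorted into low and high (top ~1%) gates on expression and reagent-binding fluorescence. Labels for polyreactivity follow the gate of origin.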

Row | Sequence | polyreactivity (PSR sort gate)
1 | QVQLVESGGGLVQAGGSLRLSCAASGSIIGRYAMGWYRQAPGKERELVAAISKNGGSRYYADSVKGRFTISRDNAKNTVYLQMNSLKPEDTAVYYCNTVRYSCNYRDQEGDYWGQGTQVTVSS | high polyreactivity
2 | QVQLVESGGGLVQAGGSLRLSCAASGSIIGTNVMGWYRQAPGKERELVASISYRDGTTYYADSVKGRFTISRDNAKNTLYLQMNSLKPEDTAVYYCAVANYYSYYWGQGTQVTVSS | low polyreactivity
3 | QVQLVESGGGLVQAGGSLRLSCAASGSIIHSYAMGWYRQAPGKERELVAAISRNGGSTYYADSVKGRFTISRDNAKITVYLQMNSLKPEDTAVYYCAKTYSQTWRYGYWGQGTQVTVSS | high polyreactivity
4 | QVQLVESGGGLVQAGGSLRLSCAASGSIIHYTMGWYRQAPGKERELVAAISKSGGSTYYADSVKGRFTISRDNAKNTVYLQMNSLKPEDTAVYYCAAVGYYAWTFGYDYWGQGTQVTVSS | high polyreactivity
5 | QVQLVESGGGLVQAGGSLRLSCAASGSIIIGNTMGWYRQAPGKERELVATIRRSGSRTYYADSVKGRFTISRDNAKNTVYLQMNSLKPEDTAVYYCAADRLRTSGYKTIYDYWGQGTQVTVSS | low polyreactivity
6 | QVQLVESGGGLVQAGGSLRLSCAASGSIILAYAMGWYRQAPGKERELVAAITGSGGRTYADSVKGRFTISRDNAKNTVYLEMNSLKPEVTAVYYFAAYYYGNWQGYYWGQGTQVIVSS | low polyreactivity
7 | QVQLVESGGGLVQAGGSLRLSCAASGSIIPLYAMGWYRQAPGKERELVAAISRRGGSTYYADSVKGRFTISRDNAKNTVYLQMNSLKPEDTAVYYCAVDTPSPSRGPRFNYWGQGTQVTVSS | high polyreactivity
8 | QVQLVESGGGLVQAGGSLRLSCAASGSIIPLYAMGWYRQAPGKERELVATINRRTGSTYADSVKGRFTISRDNAKNTVYLQMNSLKPEDTAVYYCNAADNYVRFYKTRIYNYWGQGTQVTVSS | high polyreactivity
9 | QVQLVESGGGLVQAGGSLRLSCAASGSIIPYYAMGWYRQAPGKERELVAAISNSGGRTYYADSVKGRFTISRDNAKNTVYLQMNSLKPEDTAVYYCNAVPFYSKYDYWGQGTQVTVSS | high polyreactivity
10 | QVQLVESGGGLVQAGGSLRLSCAASGSIIRGNAMGWYRQAPGKERELVAAISKRGGSTYYADSVKGRFTISRDNAKNTVYLQMNSLKPEDTAVYYCASDLPAALGFDYWGQGTQVTVSS | high polyreactivity
11 | QVQLVESGGGLVQAGGSLRLSCAASGSIIRGYAIGWFRPAPGKERELVAAITSSGGSTYYADSVKGRFTISRDNAKNTVYLQMNSLKPEETAVYYCTKYRYSYKYNYWGQGTQVTVSS | high polyreactivity
12 | QVQLVESGGGLVQAGGSLRLSCAASGSIIRHNVMVWYRQAPGKERELVAAISGGGGRTYYADSVKGRFTISRDNAKNTVSLQMNRLKPEDTAVYYCNAYVGLSEGDYWGQGTQVTVSS | high polyreactivity
13 | QVQLVESGGGLVQAGGSLRLSCAASGSIIRNAMGWYRQAPGKERELVAAINWSGGSTYYADSVKGRFTISRDNAKNTVYLQMNSLKPEDTAVYYCNKVRGTVHATRRNGDYWGQGTQVTVSS | high polyreactivity
14 | QVQLVESGGGLVQAGGSLRLSCAASGSIISFNTMGWYRQPPGKEREFVASIRRRGGSTYYADSVKGRFTISRDNAKNTVYLQMNSLKPEDTAVYYCAKANPHYVISDGVYHPRGGYWGQGTQVTVSS | low polyreactivity
15 | QVQLVESGGGLVQAGGSLRLSCAASGSIISRNAMGWYRQAPGKERELVAAITSSGDSTYYADSVKGRFTISRDNAKNTVYLQMNSLKPEDTAVYYCNARAYRRKRYDYWGQGTQVTVSS | high polyreactivity
16 | QVQLVESGGGLVQAGGSLRLSCAASGSIISWYVMGWYRQAPGKERELVAAITWGGGSRYYADSVKGRFTISRDNAKNTVYLQMNSLKPEDTAVYYCEFDYWGQGTQVSVSS | low polyreactivity
17 | QVQLVESGGGLVQAGGSLRLSCAASGSIISYNAMGWYRQAPGKERELVAGIDLGDGTTYYADSVKGRFTISRDNAKNTVYLQMNSLKPDDTAVYYCNADIQIRPYGYAGTSTDEGLGYWGQGTQVTVSS | low polyreactivity
18 | QVQLVESGGGLVQAGGSLRLSCAASGSIISYYAMGWYRQAPGKERELVAAISRGGGRTYYADSVKGRFTISRDNAKNTVYLQMNSLKPEDTAVYYCAVTPVRFASGGAWMDYWGQGTQVTVSS | high polyreactivity
19 | QVQLVESGGGLVQAGGSLRLSCAASGSIIWLYAMGWYRQAPGKERELVAAISSGGSTYYADSVKGRFTISRDNAKNTVYLQMNSLKPEDTAVYYCAADYWSQSDWWDLTEYEYWGLGTQVTVSS | high polyreactivity
20 | QVQLVESGGGLVQAGGSLRLSCAASGSIIWRNAMGWYIQAPGKERELVAAISYSGGSTYYADSVKGRFTISRDNAKNTVYLQMNSLKPEDTAVYYCAARTSYYVYRHPSGRYDYWGQGSQVTVSS | low polyreactivity
21 | QVQLVESGGGLVQAGGSLRLSCAASGSIIYFYAMGWYRPAPGKERELVAAISITSASTYYADSVKGRFTISRDNAKNTVYLQMNSLKPEDTAVYYCAAEYYYVDWIYDYWGQGTQVTVSS | high polyreactivity
22 | QVQLVESGGGLVQAGGSLRLSCAASGSIIYNNAMGWYRQAPGKERELVAAIRSTGTRTYYADSVKGRFTISRDNAKNTVYLQMNSLKPEDTAVYYCAVGDYGLWSYVYWGQGTQVTVSS | low polyreactivity

Row | Sequence | polyreactivity (PSR sort gate)
23 | QVQLVESGGGLVQAGGSLRLSCAASGSIIYYAMGWYRQAPGKEREFVAAITKSGGSTYYADSVKGRFTFSRDNAKNTVYLQMNSLKPEDTAVYYCAARGTWAGFYYWGQGTQVTLSS | high polyreactivity
24 | QVQLVESGGGLVQAGGSLRLSCAASGSIKQNSMGWYRQAPGKERELVAAIDWDGSSTYYADSVKGRFTISRDNAKNTVYLQMNSLKPEDTAVYYCNTDYTGPDGTDEYDYWGQVTQVTVSS | low polyreactivity
25 | QVQLVESGGGLVQAGGSLRLSCAASGSILAGYAMGWYRQAPGKERELVAAITSGGGSTYYADSVKGRFTISSDNAKITVYLQMNSLKAEDTAVYYCARDSGYYYDEYYYWGQGTKVTVSS | low polyreactivity
26 | QVQLVESGGGLVQAGGSLRLSCAASGSILCLNAMGWYRQAPGKERELVADITRGGSTYYADSVKGRFTISRDNAKNTVYLQMNSLKPEDTAVYYCAADAYTGQIPYYYFEHYYWGQGTQVTVSS | high polyreactivity
27 | QVQLVESGGGLVQAGGSLRLSCAASGSILDIYAMGWYRQAPGKERELVAGISTSGGSTYYADSVKGRFTISRDNAKNTVYLQMNSLNPEDTAVYYCAKDYGYQGLTRTLYCAYLEYDYWGQGTQVTVSS | low polyreactivity
28 | QVQLVESGGGLVQAGGSLRLSCAASGSILDPNAMGWYRQAPGKERELVASISRGDNTYYADSVKGRFTISRDNAKNTVYFQMNSLKPEDTAVYDCAADYSWVVWHDYWGQGTQVTVSS | low polyreactivity
29 | QVQLVESGGGLVQAGGSLRLSCAASGSILDSNAMGWYRQAPGKERELVAAITSGGSTYYADSVKGRFTISRDNAKNTVYLQMNSLKPEDTAVYFCAAAFLGYGAVQPSYEGGYWGQGTQVTVSS | low polyreactivity
30 | QVQLVESGGGLVQAGGSLRLSCAASGSILDYNTMGWYIQAPGKERELVAAIDDDSTYYADSVKGRFTISRDNAKNTVYLQMNSLKPEDTAVYYSAVDWYYGDTYGYYYWYDYWGQGTQVTVSS | high polyreactivity
31 | QVQLVESGGGLVQAGGSLRLSCAASGSILGANVMGWYRQAPGKERELVASISKSGGNTFYADSVKGRFTISRDNAKNTVYLQLNRLKPEDTAVYYCAKRAHRYSYRYTYDYWGQGTQVTVSS | low polyreactivity
32 | QVQLVESGGGLVQAGGSLRLSCAASGSILGDNAMGWYRQAPGKERELVAAISYRGGSTYADSVKGRFTISRDNAKNTVYLQMNRLKPEDTAVYYCNITDIDDSQYREYEYWGQGTQVTVSS | low polyreactivity
33 | QVQLVESGGGLVQAGGSLRLSCAASGSILGIYGMGWYRQSRGKERELVAAISYSGGSTYYADSVKGRFSISRDNAKNTVYLQMNSLKPEDTAVYYCAADLTRGVSYYVDFYYWGQGTQVTVSS | low polyreactivity
34 | QVQLVESGGGLVQAGGSLRLSCAASGSILGYYVMGWYRQAPGKERELVAVISSDGSTYYADSVKGRFTISRDNAKNTVYLQMNSLKPEDTAVYYCNADYYVEYDYWGQGTQVTVSS | low polyreactivity
35 | QVQLVESGGGLVQAGGSLRLSCAASGSILHVYAMGWYRQAPGKERELVAAISKSGTRTYYAVSVKGRFTISRDNAKNTVYLQMNRLKPEDTAVYYCAAERSQYVYSTDPYGYDYWGQGTQVTVSS | high polyreactivity
36 | QVQLVESGGGLVQAGGSLRLSCAASGSILIGNAMGWYRQAPGKERELVAAIRSGGSTNYADSVKGRFTISRDNAKNTVYLHMNSLKPEDTAVYYCARDVYVYYPYYAYDYWGQGTQVTVSS | low polyreactivity
37 | QVQLVESGGGLVQAGGSLRLSCAASGSILIHYTMGWYRQAPGKERELVAAISSTGGSTYYADSVKGRFTISRDNAKNTVYLQMNSLKPEDTAVYYCNAKQYWYYFWAYQQRDVESDYWGQGTQVTVSS | low polyreactivity
38 | QVQLVESGGGLVQAGGSLRLSCAASGSILIYNAMGWYRQARGKERELVAAISTSGGSTYYADSVKGRFTISRDTAKNTVYLQMNSLKPEDTAVYYCAARAYPYGYWGQGTQVTVSS | low polyreactivity
39 | QVQLVESGGGLVQAGGSLRLSCAASGSILKPYAMRSYRQAPGKERELVAAISGTGGSTYYADSVKGRFTISRDNAKNTVYLQMNSLKPEDTAVYYCNADEFRYAFEYWGQGTQVTVSW | high polyreactivity
40 | QVQLVESGGGLVQAGGSLRLSCAASGSILLFYVMGGYRQAPGKERELVAAITSSGGGTYYADSVKGRFTISRDNAKNTVYLQMNSLKPEDTALYYCNADDDYYGESYGPEFDYWGQGTQVTVSS | low polyreactivity
41 | QVQLVESGGGLVQAGGSLRLSCAASGSILLGYDLGWYRQAPGKERELVASIDTNGGSTYYADSVKGRFTISRDNAKNTVYLQMNSLKPEDTAVYYCNADPSFVGGTYDYWGQGTQVTVSS | low polyreactivity
42 | QVQLVESGGGLVQAGGSLRLSCAASGSILPYYAMGWSRQAPGKERELVATITDGTDTYYADSVKGRFTISRDNAKNTVYLQMNSLKPEDTAVYYCKADGYVYYMHEDYWGQGTQVTVSS | low polyreactivity
43 | QVQLVESGGGLVQAGGSLRLSCAASGSILPYYAMGWYRQAPGKERELVATITDGTDTYYADSVKGRFTISRDNAKNTVYLQMNSLKPEDTAVYYCNADGYVYYLHEDYWGQGTQVTVSS | low polyreactivity

— the nanobody polyreactivity screen of Harvey et al. (2022)
